Reference: patent US20230027540A1

Target: IL-12 receptor complex composed of IL-12 receptor β1 (IL-12Rβ1) and IL-12 receptor β2 (IL-12Rβ2) (human) (UniProt P42701)
Experiment: cell-based or functional assay

IL-12 receptor complex composed of IL-12 receptor β1 (IL-12Rβ1) and IL-12 receptor β2 (IL-12Rβ2) (human), sequence (Q99665 24-862, chain 2 of 2, other chains not shown): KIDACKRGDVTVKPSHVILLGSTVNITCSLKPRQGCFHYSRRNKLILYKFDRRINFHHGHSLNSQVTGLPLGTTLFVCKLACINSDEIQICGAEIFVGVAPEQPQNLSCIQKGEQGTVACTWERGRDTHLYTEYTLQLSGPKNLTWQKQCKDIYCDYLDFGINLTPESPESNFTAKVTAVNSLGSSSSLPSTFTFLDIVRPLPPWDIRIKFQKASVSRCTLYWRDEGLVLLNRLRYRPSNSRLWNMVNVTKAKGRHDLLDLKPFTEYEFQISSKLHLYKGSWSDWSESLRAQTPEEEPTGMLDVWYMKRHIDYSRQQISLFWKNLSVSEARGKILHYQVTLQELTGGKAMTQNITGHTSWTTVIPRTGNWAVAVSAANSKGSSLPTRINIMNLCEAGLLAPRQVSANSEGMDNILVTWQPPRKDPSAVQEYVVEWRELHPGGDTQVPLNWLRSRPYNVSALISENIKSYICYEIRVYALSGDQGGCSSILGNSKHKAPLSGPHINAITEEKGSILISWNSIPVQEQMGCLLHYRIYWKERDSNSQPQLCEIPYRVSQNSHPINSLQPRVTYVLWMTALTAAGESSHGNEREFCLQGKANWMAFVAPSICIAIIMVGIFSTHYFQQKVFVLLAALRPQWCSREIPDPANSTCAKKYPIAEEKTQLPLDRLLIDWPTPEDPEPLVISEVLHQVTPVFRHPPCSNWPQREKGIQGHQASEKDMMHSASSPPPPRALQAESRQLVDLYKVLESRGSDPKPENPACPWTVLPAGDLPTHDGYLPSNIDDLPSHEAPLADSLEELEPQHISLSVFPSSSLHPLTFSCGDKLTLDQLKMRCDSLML

## IL-12-Fc fusion comprising IL-12p35(D55Q/N151D)
  fold reduction in potency (EC50 of STAT4 phosphorylation) relative to WT IL-12-Fc XENP27201: 2 fold

## IL-12-Fc fusion comprising IL-12p35(E153Q)
  fold reduction in potency (EC50 of STAT4 phosphorylation) relative to WT IL-12-Fc XENP27201: > 2 fold

## IL-12-Fc fusion comprising IL-12p40(E235Q)
  fold reduction in potency (EC50 of STAT4 phosphorylation) relative to WT IL-12-Fc XENP27201: > 2 fold
